Experimental data reported in the domain aggregation screens of Martell et al. (2025).

Test: soluble fraction after stress (log2 fold change); higher = more stays soluble; pooled small domains, quantitative proteomics
Details: stress: pH 4
In short: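 With high-throughput quantitative proteomics, pooled custom libraries of small protein domains were measured after pH 4 stress. Each domain's soluble amount after the stress gives a fold change taken as aggregation propensity. Higher log2 values mean more of the domain stayed soluble.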
For “HMFSMKDFGQRLRQLRKERGLTQGDLARLAKIDIMQVSRYERGLGLPSLETAIALARVLETSTDLLFLG”, the “soluble fraction (log2)” value was -0.0792.
For “HMYTVQQLARLAGITPRTLRHYDAIGLLKPTRVGENGYRYYGSEALLRLQSILLYRELDMPLEDIRRVLDS”, the “soluble fraction (log2)” value was -1.23.
With “HMAQTTKWREIHKVKRKETIFGIARDNGLTVDELIEANPEMTKPGYELKKGDFIYIPFPSKNIDTNAGTQT” the “soluble fraction (log2)” value was -0.627.
With “HMRAGALTTLTERERNVFDLVVTGHSNPEIARQLSIADVTVKTHVGHILSKLGVRDRVHLVIWAHRQGLAD” the “soluble fraction (log2)” value was 0.0561.
With “HMGDPVRVDKFLHDMNVGTRSQIRKLIKEKAVFVNDVVAKSGRVKVDPVVDQVRLGEQVITYQ” the “soluble fraction (log2)” value was 0.0055.
For “HMPSLILADEPTGNLDSRNSSEVIALLKNASKRYAQTIIMITHNRSIAQSADRVLQVSDGVLTDMG”, the “soluble fraction (log2)” value was 0.0603.
With “HMSHGYVEMQAKDDQVLLAALKNHPWFEKVSIDEETGLTKAILTQPIEAEELNSMLFEKGIVLSHLVKRK” the “soluble fraction (log2)” value was -1.2.
In the case of “HMNFFQEIGNSILIELNKKNWTQSMFAHKIGVSDEVFKQIVQGKKALNAVEIAKIANTLDVDPEKLLRK”, the “soluble fraction (log2)” value was -0.0391.
With “HMSVISVETAKSKALAHAGLTASKVTFIENKLEWDDGRQVYDIEFYTSDYKEYDYTIDAVSGQVLEFDY” the “soluble fraction (log2)” value was 0.114.
With “HMSTEDYLKTIYILESQQGVHGSDVARMLKVTRPTVSIALKALEQEGYVWMDESRLVHLTDSGLQIAKDT” the “soluble fraction (log2)” value was 0.149.
For “HMGISSESIKTFIREIVENEDPKAPLSDQTMVELLAERGIDISRRTVAKYRDEMNLPSSSKRKR”, the “soluble fraction (log2)” value was -0.168.
For “HMEIDMQEGIKTIILMMKEHNITPSEAMKIYKSANGDIHYISKIYNHFKNKGADNFVALMIKMVKPGEFIE”, the “soluble fraction (log2)” value was -0.398.
In the case of “HMAGTWQDQGNGQWKYQNDDGSYATGWIEDSGKSYYLDANGIMLANTTTPDGKQVGPDGALIP”, the “soluble fraction (log2)” value was -1.69.
For “HMKGLKERLLYFIEYKGLPVQMFEKIVGLSNAAVSKMGDNTRRSTIDKISKSFPELDVNWLLTGQGEMLSY”, the “soluble fraction (log2)” value was 0.296.
For “HMIERVLRTEEHIEAFAGEEVEAKLFAPIDGKKTLRGILGGIEDGRVILTVGDTEYRIEHAKISRLTTVFD”, the “soluble fraction (log2)” value was -0.712.
For “HMADYYSILGLTKNATDIEIKSAFRKLAKIYHPDKNPDPNARVLFEHILKAYDTLINPHSRRRYDSL”, the “soluble fraction (log2)” value was 0.22.
For “HMSLLTIDELSQATGVSVRTLRYYVSSGVLDKPTGETRNARYGTHHLDQVRNIKKLQEEGLTLNRILEIKK”, the “soluble fraction (log2)” value was -0.405.
For “HMISEGDIIKGTVIDVNEEEVILDLKYYAQGVIKAENLSNDPDFLAAGKISVGDEIEATVIKMDDGEGNIE”, the “soluble fraction (log2)” value was -0.496.
For “HMSGALDTVVGIRMLKLLSTPIEKSKAFQVGIINKDGKKLRDPTSGERQHYTFLNRFVFKVQYALMRS”, the “soluble fraction (log2)” value was -0.072.
For “HMQRYFINEPVPEDQRLVLPKDIAHHLVDVLRAEQNDELEVALNDQKVYLARLISLNPATVELQSDLG”, the “soluble fraction (log2)” value was -0.176.
For “HMKFSVEEQFKKSFPKNTYETFSETSLKGVYEVYNGKQVYYYLPVNDVLLLGSIVTKDGKNLTQESNSKK”, the “soluble fraction (log2)” value was -0.0849.
With “HMDYEVPEELQQKFEEFPRLKEAFYQLTPGRQHQYLYYFSQAKRSQTRYNRIDKYMNAILQGKGMK” the “soluble fraction (log2)” value was 0.167.
For “HMIDFDEIEILSSSKIEKIENSEYLKSSIFEKDSNQYIYRLSFENRDQLKNFKKEIEDIDQIKKIDVTY”, the “soluble fraction (log2)” value was -0.665.
In the case of “HMGAATQADIARVQELLNRLGYDAGSPDGLMGPRTRDAILEYQLTEGLETTGTVTRETLASLEARL”, the “soluble fraction (log2)” value was -0.939.
For “HMQLPIGDVKLSVEHLSSGTALQDISFEVHRGEIFGFLGLVGAGRSETAETIFGLREKTDGKISIDGTVL”, the “soluble fraction (log2)” value was 0.117.
With “HMSSQWWYSAGGERKGPVDFATLRGLYVQGAIDGRTLAWREDMQGWEAVNDIPDLEPLRRAVPPEL” the “soluble fraction (log2)” value was 0.11.
In the case of “HMSEEQLKAFLEKVQGDTSLQEKLKAAADANAVVEIAKEAGFSISADDLKNAQSELSEEELE”, the “soluble fraction (log2)” value was -0.257.
With “HMQRDERYVYHTVLAGETIYSLSRKFNVTMDELLESNPALRSGVLTTGSEIRVLKAQMAQNFD” the “soluble fraction (log2)” value was 0.383.
In the case of “HMSMHVHTPNPDFKPSNTNALQEGQLVEHPKFGFGKVQKIETEGLNKKASIQFEHFGEKTLLLSFAKLRII”, the “soluble fraction (log2)” value was -0.167.
With “HMRHSLAAALTELRRLAALDLGDFFRFEYVSHTDSLGGKQQAYTEGIRVSFGVYLGVNKKDRLNVDPVV” the “soluble fraction (log2)” value was -2.38.
For “HMFTEEQMDWLRLIKDHIVASLSILPEDLELTPFDRKGGLLGFYDAFGDEYEKILQEMNEELVA”, the “soluble fraction (log2)” value was -0.43.
With “HMFTEEEMTKLRHELILAGIRLSRELGLQRMSVEKITSAVGIAKGSFYIFFDSKEDFILEIADHANRE” the “soluble fraction (log2)” value was -0.828.
In the case of “HMQLEPLITSVIPVNFAKAGEVATTIKGKEVGLVSDRGSITAESRTNVLIVKDIKKNVDDISAMVKRLD”, the “soluble fraction (log2)” value was -0.0177.
For “HMLPIKLDLEIGENVRVVSGPLENFVGSVVSFDTDQQKVKLVVEMFGRKTPVELDFIEVQKLR”, the “soluble fraction (log2)” value was -1.47.
For “HMAMDSGELEAIVDRLISEHPDDWAALTAGDDRERKKKSGFFVGEVMKATRGQADGRAVIELLASRSA”, the “soluble fraction (log2)” value was -0.605.
With “HMGLNEGLNEGQQKVIQHIQENEGIKVKEISLKLNMPIDTVDRHIRVLKNLNLIERRGSRKTGGYFISN” the “soluble fraction (log2)” value was 0.111.
With “HMREVPHGEYEVKIEKLELVESKAGDPMVTVWFKVLAGDYKGSMIFMNQVITKGFQIHIMNEFLR” the “soluble fraction (log2)” value was -1.1.
In the case of “HMNSTNYQVIITANGGLNIRAGASTAYARIGGYAKGTVVTILAESNGFGKTDKGWISLNYTSKDLD”, the “soluble fraction (log2)” value was 0.148.
With “HMNINHEINIKSKKKISILENNPNLSQFYLTKNPDQYNYNLVFSDKSELNKLKEKLESDNEVEDIDIRYG” the “soluble fraction (log2)” value was -0.195.
For “HMLPDLLNGRVIPSPEKVIRARLNRGVWELLVQWVGRAPSDATWENLLEFKSAYPSVQLEDALF”, the “soluble fraction (log2)” value was -1.1.
With “HMSSESIKTDKNVGVGSTLEELEKAYGSDYTLSGKMYRYYQDDNSKYMYFFILNDVVQYYGYGIDV” the “soluble fraction (log2)” value was -1.38.
For “HMPMPQDEVSYALGLSIGQNFKASGIKAITSEDFIAGLQDALAEREPQMTTERAREVINQLFMRLQQEESE”, the “soluble fraction (log2)” value was -0.784.
In the case of “HMNNLLEDIKARLMAQAEAGGHIDTETELAEHFGVTRYRIRKELDLLSQMGLLRRQPKNGIEVLTV”, the “soluble fraction (log2)” value was 0.22.
In the case of “HMKPGYVIQVNGTVTKIQSGLVYVKTPAAQYTLMRKYAPADAAVGDRVSLWINEEGMVIDVHGK”, the “soluble fraction (log2)” value was -0.671.
For “HMGMAETTARILQLLGLLQSRRGWSGQELAERLGVTTRSVRRDVERLRELGYPVHASAGHGGGYQLGA”, the “soluble fraction (log2)” value was -0.106.
With “HMEWEVHSVTVTPELSGERLDVAATALLSQFSRALVQRWIDANELTLNERPVKAKSKVRVGDLIAVKAK” the “soluble fraction (log2)” value was 0.0878.
In the case of “HMPAVTEQTRANLRTAFWSLYREKPTSKITVREITDRAGYNRATFYLYYRDVYDLFEQIEQEIL”, the “soluble fraction (log2)” value was -1.36.
In the case of “HMAPLAVIFPEPWRGMIAPEKLEGLTQALSLNPRPGYQHDPTRRYGVSLDGLDVRFTIDGDTLTVVEVVT”, the “soluble fraction (log2)” value was -1.12.
With “HMITTLLVENLQDVGMRLDHYLVYNLIKYSRSHIQSFIRSGDIRVNGKKVKTGYSLELKDLIHIEMP” the “soluble fraction (log2)” value was -1.1.
With “HMGLLLSQLDKDYQRYIDLADSTFRDNQLAVSRGWYNRALGVKAAEKYPKDQIAEIEKKIAERM” the “soluble fraction (log2)” value was -0.108.
In the case of “HMHKREKSFFETIYDDIPGIGKKRRVQLLSAYPTLDSLKSVTLEELKQIVPEESAKLILEKRDSR”, the “soluble fraction (log2)” value was 0.407.
In the case of “HMNPLDGTSVHPESYEAAEKLLKKQGFSLEDISGGKLTGLSLTIKDYARLAKELEIGEITLRDIVKELEK”, the “soluble fraction (log2)” value was -0.747.
With “HMPVSLHEQIQQARIRAEQNVEGISLLLQVNPKYYEQIEAGDVIPDQDLLKRISSLFGWNYHEMLHREKSS” the “soluble fraction (log2)” value was -0.487.
In the case of “HMYFEDEELDRFVGTPAGAYTEEDVEEFRDVLLSLDIEEVPSWVRSLQLRGIDFPETLRPELYLL”, the “soluble fraction (log2)” value was -2.72.
In the case of “HMDQEDAYMQVRQVFDTLLVSELSKRIFAWRFFEGKSFAEWPGAESQKFLYDTFNRILLIISAKIRRKNA”, the “soluble fraction (log2)” value was -0.522.
For “HMATTIDFTVGDDVQVMNGPLESFTGKVTELNEASQKVKVDVVMFGRVTNVELDFVQVKKIT”, the “soluble fraction (log2)” value was -0.531.
For “HMSFGWETLEGKEGVTDTDLHPSGWVKVGDEKIFVVSQGEFLGKGTDIVVVSVDGNRVVVKELI”, the “soluble fraction (log2)” value was -1.11.
For “HMSKPIREVAYETLKNAIVTGEIPAGSRIVETEYAERMHISRTPLREALRKLERDGLVEYVVRRGVVVRAF”, the “soluble fraction (log2)” value was -0.303.
In the case of “HMSMLGTEQRVLVLGPARKGEGFLMARTDNNRIVNFEGPLSLVDTMVRVKVTDVYPHSLGGQLL”, the “soluble fraction (log2)” value was -0.0321.
In the case of “HMTYKHLTIDEMKRFLSTREDSQSALVQFARVENVVGNRKGKYAVIKKWFLKNYKEEYNAFLS”, the “soluble fraction (log2)” value was 0.0391.
With “HMRSFRIGGLVEQGSIARDGQSLTVRFAVTDLAHKIPVTYTGLLPDLFKEGKGVVAEGKLGPDGVFHASQV” the “soluble fraction (log2)” value was -0.705.
For “HMAVSGRGSIIGGVATVLDDFADSGKVWLEGEAWQARSSVPLKQDQEVVVRAMDGLVLVVEPVA”, the “soluble fraction (log2)” value was -0.869.
In the case of “HMREVEAPRDLLAALGERPGALDAWKALSFTHQREYVEAIEDARKPETRERRIANAVKMVAERS”, the “soluble fraction (log2)” value was 0.111.
In the case of “HMTVTISPGYEGRLLRSYLKNTLSLSTSALARLKTREDGITVNGVRVTVRYVLHAGDLLQLAVD”, the “soluble fraction (log2)” value was 0.22.
With “HMETKPTELMLEVHELRIGMFVHLDLGWMDHPFPLNRFKISTNSQIEQIKGLRLKQVKVMTALSDPTALS” the “soluble fraction (log2)” value was -1.25.
In the case of “HMGSRRFGDSNHAAKLTEEQVVEIRELAAAGATTKFLAEMVGMHPNYVGLILRGLSWPEAGGPLRVA”, the “soluble fraction (log2)” value was 0.0889.
With “HMRAAFEHLTIGQTVSGLVKSQARGVSLVEIEGQTVAMRLPQPVAVGDTLRLRFAGHMPQPVFLLDT” the “soluble fraction (log2)” value was -0.0299.
With “HMPQGFEDLTEREREVLTLIAEGRTNQEIADALVISIKTVNRHRENIMAKLNLHSRVELVRYAIAQGLI” the “soluble fraction (log2)” value was -0.723.
In the case of “HMTDEYYSYIGKTGTTITVLRPAGIAEVEGERLNVVSEGEFIRKGAAILVKEVEGARILVEEVN”, the “soluble fraction (log2)” value was 0.349.
With “HMALDLNEDEKLLVELIEKAGGTAGLGELKEASGLSGKKWDKTTKNLSKEGLIKVEKNESGLWVHLT” the “soluble fraction (log2)” value was -0.423.
For “HMTVKEYNRAVDEYSDAVWRFIRGNLRDEDRANDIVQDSFEKLWMHVTEIDYSVAKSWLFSTAYNNMIDI”, the “soluble fraction (log2)” value was -0.899.
For “HMLSLTSRQQEIFDLIKGHIKKTGMPPTRSEIALHFGFRSANSAEEHLRALARKGFIELIPGTSRGIKLIE”, the “soluble fraction (log2)” value was ≥ 0.43.
For “HMPHILEITSSKILDELQDEKKMVYFHFEKQSNQYVYRLIFNSKNELMEFKKSLEKNSSILDVRADM”, the “soluble fraction (log2)” value was -0.354.
In the case of “HMTAPELSVGDYLEYRGKEYKVESLDMDGFITLTDTALEDAPRLISRVTFLTDEFIRSGEYMVIT”, the “soluble fraction (log2)” value was -1.4.
For “HMSLEDYVIIKNKTVKVYETEFDGAPVVTSSSVGQKLILVEYNDNFAKILYRAKDGLDYVGYIKRKDVYVR”, the “soluble fraction (log2)” value was -1.04.
